Assay [1] deals with human PD-L1 (human) (UniProt Q9NZQ7). The assay can be described thus: flow cytometry, transfected Expi293F cells. In general terms: In flow cytometry, cells or beads pass a laser one at a time.
The target in assay [2] is human CTLA-4 (human) (UniProt P16410). The assay can be described thus: flow cytometry, transfected Expi293F cells.
In assay [3] the target is CD28 (human) (UniProt P10747). In words: flow cytometry, transfected Expi293F cells.
Assay [4] addresses human CTLA-4 (huCTLA4), on stably transduced CHO cells (human) (UniProt P16410). The assay can be described thus: flow cytometry on CHO/huCTLA4 cells; MFI relative to WT CD80 (CD80 WT IgV-Fc = 1.0).
The target in assay [5] is CD28, endogenously expressed on Jurkat/IL2 reporter cells (human) (UniProt P10747). The assay can be described thus: flow cytometry on Jurkat/IL2 reporter cells (endogenous CD28), 33.3 nM Fc fusion, PE anti-human Fc.
The target in assay [6] is human PD-L1 (huPD-L1), on stably transduced CHO cells (human) (UniProt Q9NZQ7). The assay can be described thus: flow cytometry on CHO/huPD-L1 cells; MFI relative to WT CD80 (CD80 WT IgV-Fc = 1.0).
Sequence of human PD-L1 (huPD-L1), on stably transduced CHO cells (human) (Q9NZQ7 19-290): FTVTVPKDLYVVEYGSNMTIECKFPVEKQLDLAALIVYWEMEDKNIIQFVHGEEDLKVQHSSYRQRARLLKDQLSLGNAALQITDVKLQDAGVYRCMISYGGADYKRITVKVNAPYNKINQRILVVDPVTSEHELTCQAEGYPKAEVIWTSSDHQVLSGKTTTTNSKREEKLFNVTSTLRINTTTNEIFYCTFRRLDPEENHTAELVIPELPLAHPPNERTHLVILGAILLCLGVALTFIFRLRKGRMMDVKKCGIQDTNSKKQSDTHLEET
Assay [7] has as its target human CTLA-4 (huCTLA4), on stably transduced CHO cells (human) (UniProt P16410). The assay can be described thus: flow cytometry on CHO cells stably expressing huCTLA4, 33.3 nM Fc fusion, PE anti-human Fc.
Assay [8] addresses human PD-L1 (huPD-L1), on stably transduced CHO cells (human) (UniProt Q9NZQ7). The assay can be described thus: flow cytometry on CHO cells stably expressing huPD-L1, 33.3 nM Fc fusion, PE anti-human Fc.
For assay [9], the target named is CD28, endogenously expressed on Jurkat/IL2 reporter cells (human) (UniProt P10747). In words: flow cytometry on Jurkat (CD28) cells; MFI relative to WT CD80 (CD80 WT IgV-Fc = 1.0).
For assay [10], the target named is human PD-L1 (huPD-L1), on stably transduced CHO cells (human) (UniProt Q9NZQ7). In words: flow cytometry; ratio of MFI on CHO/huPD-L1 cells to MFI on Jurkat (CD28) cells.
The target of assay [11] is human CTLA-4 (human) (UniProt P16410). The assay can be described thus: flow cytometry, CHO cells expressing huCTLA4, vs WT CD80 ECD-Fc (R&D).
For assay [12] the target is unchanged. The assay can be described thus: flow cytometry, CHO cells expressing huCTLA4.
The target of assay [13] is CD28 (human) (UniProt P10747). The assay can be described thus: flow cytometry, Jurkat/IL2 reporter cells (CD28).
Assay [14] deals with human PD-L1 (human) (UniProt Q9NZQ7). In words: flow cytometry, CHO cells expressing huPD-L1.
The target of assay [15] is CD28 (human) (UniProt P10747). The assay can be described thus: flow cytometry, Jurkat/IL2 reporter cells (CD28), vs WT CD80 ECD-Fc (R&D).
In assay [16] the target is human CTLA-4 (human) (UniProt P16410). In words: flow cytometry, CHO cells stably expressing CTLA4.
In assay [17] the target is CD28 (human) (UniProt P10747). The assay can be described thus: flow cytometry, Jurkat cells (CD28).
The target in assay [18] is human PD-L1 (human) (UniProt Q9NZQ7). In words: flow cytometry, CHO cells stably expressing PD-L1.
The target is the same in assay [19]. The assay can be described thus: flow cytometry, MFI on PD-L1 cells over MFI on CD28 cells.

Sequence of human CTLA-4 (human) (P16410 36-223): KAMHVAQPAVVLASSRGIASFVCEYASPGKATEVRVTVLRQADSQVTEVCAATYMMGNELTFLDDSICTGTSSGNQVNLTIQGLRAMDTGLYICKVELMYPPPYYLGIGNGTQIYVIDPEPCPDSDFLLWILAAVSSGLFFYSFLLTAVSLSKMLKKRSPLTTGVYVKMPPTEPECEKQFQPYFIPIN
Sequence of human CTLA-4 (huCTLA4), on stably transduced CHO cells (human) (P16410 36-223): as above
Sequence of human PD-L1 (human) (Q9NZQ7 19-290): as the sequence (Q9NZQ7 19-290) above

B1: CD80 Y53C/L85R/K89N/A91T/F92P/K93V/R94L/I118V/T120S/I127T/T130A/K169E ECD-Fc (Fc fusion)
chain: VIHVTKEVKEVATLSCGHNVSVEELAQTRIYWQKEKKMVLTMMSGDMNIWPECKNRTIFDITNNLSIVILALRPSDEGTYECVVRKYENDTPVLEHLAEVTLSVKADFPTPSISDFEVPSSNIRRITCSASGGFPEPHLSWLENGEELNAINTTVSQDPETELYAVSSELDFNMTTNHSFMCLIKYGHLRVNQTFNWNTTKQEHFPDN
As to B1, the MFI was found to be 2550 in assay [1], 1460 in assay [2] and 1400 in assay [3]. Moreover, the parental ratio in assay [1] is 0.03; in [2], 0.01; in assay [3], 0.03.

B2: CD80 Y53C/L70Q/D90G/T130A/N149D/N152T/H188D ECD-Fc (Fc fusion)
chain: VIHVTKEVKEVATLSCGHNVSVEELAQTRIYWQKEKKMVLTMMSGDMNIWPECKNRTIFDITNNLSIVIQALRPSDEGTYECVVLKYEKGAFKREHLAEVTLSVKADFPTPSISDFEIPTSNIRRIICSASGGFPEPHLSWLENGEELDAITTTVSQDPETELYAVSSKLDFNMTTNHSFMCLIKYGDLRVNQTFNWNTTKQEHFPDN
In the case of B2, the MFI was 3290 in assay [1], 3110 in assay [2] and 1990 in assay [3]. Besides, the parental ratio in assay [1] was 0.04; in [2], 0.01; in assay [3], 0.04.

B3: CD80 R29D/Y31L/Q33H/K36G/M38I/T41A/M43R/M47T/L70Q/D76G/A91G/S103L/I118V/T120S/I127T/T130A ECD-Fc (Fc fusion)
chain: VIHVTKEVKEVATLSCGHNVSVEELAQTDILWHKEGKIVLAMRSGDTNIWPEYKNRTIFDITNNLSIVIQALRPSGEGTYECVVLKYEKDGFKREHLAEVTLLVKADFPTPSISDFEVPSSNIRRITCSASGGFPEPHLSWLENGEELNAINTTVSQDPETELYAVSSKLDFNMTTNHSFMCLIKYGHLRVNQTFNWNTTKQEHFPDN
Regarding B3, the MFI was 3510 in assay [1], 1730 in [2] and 1910 in assay [3]. Further, the parental ratio in [1] was found to be 0.04; in [2] it was 0.01; in [3], 0.04.

B4: variant CD80 IgV-Fc D46V/M47I/A71G (Fc fusion)
chain: VIHVTKEVKEVATLSCGHNVSVEELAQTRIYWQKEKKMVLTMMSGVINIWPEYKNRTIFDITNNLSIVILGLRPSDEGTYECVVLKYEKDAFKREHLAEVTLSVKAD
As to B4, the Fold change to WT CD80 was determined as 14.8 fold in [4], 104 fold in [6] and 20.1 fold in assay [9]. The MFI at 33.3 nM in assay [5] is 1320 MFI; in assay [7] it was 28400 MFI; in assay [8], 7330 MFI. Further, the Ratio of PDL1:CD28 in assay [10] was 6.

B5: variant CD80 IgV-Fc E35D/M47L/A71G/L85M (Fc fusion)
chain: VIHVTKEVKEVATLSCGHNVSVEELAQTRIYWQKDKKMVLTMMSGDLNIWPEYKNRTIFDITNNLSIVILGLRPSDEGTYECVVMKYEKDAFKREHLAEVTLSVKAD
B5: the Fold change to WT CD80 in assay [4] is 8.7 fold; in assay [6], 118 fold; in assay [9], 3 fold. Besides, the MFI at 33.3 nM was 199 MFI in [5], 16600 MFI in [7] and 8310 MFI in assay [8]. In addition, in assay [10], the Ratio of PDL1:CD28 came to 42.

B6: variant CD80 IgV-Fc E35D/L97R (Fc fusion)
chain: VIHVTKEVKEVATLSCGHNVSVEELAQTRIYWQKDKKMVLTMMSGDMNIWPEYKNRTIFDITNNLSIVILALRPSDEGTYECVVLKYEKDAFKREHRAEVTLSVKAD
In the case of B6, the MFI at 33.3 nM worked out at 44.6 MFI in assay [5], 22800 MFI in assay [7] and 2610 MFI in [8].

B7: variant CD80 IgV-Fc V22A/E35D/M47I/Y87N (Fc fusion)
chain: VIHVTKEVKEVATLSCGHNVSAEELAQTRIYWQKDKKMVLTMMSGDINIWPEYKNRTIFDITNNLSIVILALRPSDEGTYECVVLKNEKDAFKREHLAEVTLSVKAD
Regarding B7, the figures for the Fold change to WT CD80 in [11] and in assay [15] were 1.56 fold and 0.85 fold, respectively. In addition, the MFI at 33.3 nM in assay [12] was 246000 MFI; in assay [13], 15300 MFI; in [14], 35300 MFI.

B8: variant CD80 IgV-Fc H18Y/E35D/M47L/A71G/A91S (Fc fusion)
chain: VIHVTKEVKEVATLSCGYNVSVEELAQTRIYWQKDKKMVLTMMSGDLNIWPEYKNRTIFDITNNLSIVILGLRPSDEGTYECVVLKYEKDSFKREHLAEVTLSVKAD
On to B8, for which the Fold change to WT CD80 stood at 12.6 fold in [4], 108 fold in assay [6] and 8 fold in [9]. The MFI at 33.3 nM was found to be 528 MFI in assay [5], 24200 MFI in assay [7] and 7580 MFI in assay [8]. The Ratio of PDL1:CD28 in assay [10] worked out at 14.

B9: variant CD80 IgV-Fc H18Y/A26E/M47L/A71G (Fc fusion)
chain: VIHVTKEVKEVATLSCGYNVSVEELEQTRIYWQKEKKMVLTMMSGDLNIWPEYKNRTIFDITNNLSIVILGLRPSDEGTYECVVLKYEKDAFKREHLAEVTLSVKAD
For B9, the results for the Fold change to WT CD80 in [16], in [17] and in assay [18] were 16.3 fold, 13.9 fold and 357 fold, respectively. Besides, the MFI at 33.3 nM was determined as 22100 MFI in [16], 611 MFI in assay [17] and 15600 MFI in assay [18]. The Ratio of PDL1:CD28 in assay [19] stood at 25.5.

B10: variant CD80 IgV-Fc M47I/A71G (Fc fusion)
chain: VIHVTKEVKEVATLSCGHNVSVEELAQTRIYWQKEKKMVLTMMSGDINIWPEYKNRTIFDITNNLSIVILGLRPSDEGTYECVVLKYEKDAFKREHLAEVTLSVKAD
With B10, the Fold change to WT CD80 was 14.5 fold in [4], 72.5 fold in assay [6] and 12.5 fold in assay [9]. The results for the MFI at 33.3 nM in assay [5], in assay [7] and in [8] were 823 MFI, 27800 MFI and 5100 MFI, respectively. Besides, the Ratio of PDL1:CD28 in assay [10] amounted to 6.

B11: CD80 R29D/Y31L/Q33H/K36G/M38I/T41A/M43R/M47T/E81V/L85R/K89N/A91T/F92P/K93V/R94L/I118V/T120S/T130A/K169E/M174T ECD-Fc (Fc fusion)
chain: VIHVTKEVKEVATLSCGHNVSVEELAQTDILWHKEGKIVLAMRSGDTNIWPEYKNRTIFDITNNLSIVILALRPSDEGTYVCVVRKYENDTPVLEHLAEVTLSVKADFPTPSISDFEVPSSNIRRIICSASGGFPEPHLSWLENGEELNAINTTVSQDPETELYAVSSELDFNTTTNHSFMCLIKYGHLRVNQTFNWNTTKQEHFPDN
B11: the MFI was 158000 in assay [1], 2490 in assay [2] and 2740 in [3]. In addition, the figures for the parental ratio in assay [1], in [2] and in [3] were 0.06, 0.01 and 0.06, respectively.

B12: CD80 C16S/H18L/R29D/Y31L/Q33H/K36G/M38I/T41A/M43R/M47T/E81V/L85R/K89N/A91T/F92P/K93V/R94L/T110A/I118V/H188D ECD-Fc (Fc fusion)
chain: VIHVTKEVKEVATLSSGLNVSVEELAQTDILWHKEGKIVLAMRSGDTNIWPEYKNRTIFDITNNLSIVILALRPSDEGTYVCVVRKYENDTPVLEHLAEVTLSVKADFPAPSISDFEVPTSNIRRIICSTSGGFPEPHLSWLENGEELNAINTTVSQDPETELYAVSSKLDFNMTTNHSFMCLIKYGDLRVNQTFNWNTTKQEHFPDN
For the molecule B12, the MFI is 4500 in [1], 1800 in assay [2] and 1210 in assay [3]. The results for the parental ratio in assay [1], in [2] and in assay [3] were 0.03, 0.01 and 0.03, respectively.

B13: CD80 H18L/R29D/Y31L/Q33H/K36G/M38I/T41A/M43R/M47T/E81V/L85R/K89N/A91T/F92P/K93V/R94L/F116S/T130A/H188D ECD-Fc (Fc fusion)
chain: VIHVTKEVKEVATLSCGLNVSVEELAQTDILWHKEGKIVLAMRSGDTNIWPEYKNRTIFDITNNLSIVILALRPSDEGTYVCVVRKYENDTPVLEHLAEVTLSVKADFPTPSISDSEIPTSNIRRIICSASGGFPEPHLSWLENGEELNAINTTVSQDPETELYAVSSKLDFNMTTNHSFMCLIKYGDLRVNQTFNWNTTKQEHFPDN
B13: the MFI is 110000 in assay [1], 2090 in assay [2] and 1240 in assay [3]. Further, the values for the parental ratio in assay [1], in [2] and in assay [3] were 0.03, 0.01 and 0.03, respectively.

B14: CD80 R29D/Y31L/Q33H/K36G/M38I/T41A/M43R/M47T/L70Q/E81V/K89N/A91T/F92P/K93V/R94L/I118V/T120S/I127T/T130A ECD-Fc (Fc fusion)
chain: VIHVTKEVKEVATLSCGHNVSVEELAQTDILWHKEGKIVLAMRSGDTNIWPEYKNRTIFDITNNLSIVIQALRPSDEGTYVCVVLKYENDTPVLEHLAEVTLSVKADFPTPSISDFEVPSSNIRRITCSASGGFPEPHLSWLENGEELNAINTTVSQDPETELYAVSSKLDFNMTTNHSFMCLIKYGHLRVNQTFNWNTTKQEHFPDN
For the molecule B14, the MFI in assay [1] amounted to 14200; in [2] it was 2120; in assay [3], 2110. Further, the results for the parental ratio in [1], in assay [2] and in [3] were 0.05, 0.01 and 0.05, respectively.
